The record followed here is the supplement of paper PMC10567573.

Sequences and labels used below:
B1: C2CD2L (parent)
chain: EPAGSLRELGVWRSLLRLRATRAG
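Also: lentivirally expressed fusions sorted by FACS into six bins by GFP to DsRed ratio, PSI derived from sequencing read proportions per bin multiplied by bin number.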

Variants of B1 are the subject of this data set. Kind of data set: protein stability index of a GFP-peptide fusion (GPS, HEK-293T) (PSI 1-6); higher = more stable. Particulars: c terminus: a fixed tail appended.
Turning to EPAISLRELGVWRSLLRLRATRAG, the protein stability index amounted to 2.07.

For EPAYSLRELGVWRSLLRLRATRAG, the protein stability index was 3.48.

Consider EPAPSLRELGVWRSLLRLRATRAG, for which the protein stability index stood at 3.02.

Take EPANSLRELGVWRSLLRLRATRAG: the protein stability index stood at 1.98.

For EPALSLRELGVWRSLLRLRATRAG, the protein stability index is 1.97.

As for EPAESLRELGVWRSLLRLRATRAG, the protein stability index came to 3.52.

On to RPAGSLRELGVWRSLLRLRATRAG, for which the protein stability index was determined as 2.25.

For the variant IPAGSLRELGVWRSLLRLRATRAG, the protein stability index was 1.91.

As to PPAGSLRELGVWRSLLRLRATRAG, the protein stability index is 2.25.

Consider TPAGSLRELGVWRSLLRLRATRAG, for which the protein stability index was 1.84.

For the variant NPAGSLRELGVWRSLLRLRATRAG, the protein stability index is 2.09.

Take FPAGSLRELGVWRSLLRLRATRAG: the protein stability index was 2.41.

In the case of EPAGSLRTLGVWRSLLRLRATRAG, the protein stability index was 2.1.

For EPAGSLRRLGVWRSLLRLRATRAG, the protein stability index amounted to 2.06.

EPAGSLRFLGVWRSLLRLRATRAG: the protein stability index came out at 2.9.

Regarding EPAGSLRMLGVWRSLLRLRATRAG, the protein stability index was 1.73.

In the case of EPAGSLRELGVWRSLLRLRTTRAG, the protein stability index was 1.85.

For the variant EPAGSLRELGVWRSLLRLRHTRAG, the protein stability index came to 2.67.

Take EPAGSLRELGVWRSLLRLRQTRAG: the protein stability index amounted to 2.04.

Turning to EPAGSLRELGVWRSLLRLRMTRAG, the protein stability index came to 2.48.

EPAGSLRELGVWRSLLRLRLTRAG: the protein stability index is 2.58.

EPAGALRELGVWRSLLRLRATRAG: the protein stability index is 2.31.

As to EPAGWLRELGVWRSLLRLRATRAG, the protein stability index turned out to be 1.82.

For the variant EPAGYLRELGVWRSLLRLRATRAG, the protein stability index worked out at 2.73.

EPAGFLRELGVWRSLLRLRATRAG: the protein stability index stood at 1.21.

Consider EPAGCLRELGVWRSLLRLRATRAG, for which the protein stability index amounted to 2.36.

Regarding EPAGSLRELGVWRSLTRLRATRAG, the protein stability index amounted to 2.74.

EPAGSLRELGVWRSLGRLRATRAG: the protein stability index worked out at 3.32.

In the case of EPAGSLRELGVWRSLIRLRATRAG, the protein stability index was 2.36.

As for EPAGSLRELGVWRSLFRLRATRAG, the protein stability index amounted to 2.26.

On to EPAGSLRELGVWRSLRRLRATRAG, for which the protein stability index was found to be 2.57.

On to EPAGSLRELGVWRSLYRLRATRAG, for which the protein stability index was determined as 2.3.

For EPAGSLRELGVWRSLKRLRATRAG, the protein stability index amounted to 3.56.

On to EPAGSLRELGVTRSLLRLRATRAG, for which the protein stability index stood at 4.02.

As for EPAGSLRELGVMRSLLRLRATRAG, the protein stability index amounted to 2.42.

On to ENAGSLRELGVWRSLLRLRATRAG, for which the protein stability index was 1.5.

EGAGSLRELGVWRSLLRLRATRAG: the protein stability index is 1.1.

Regarding EHAGSLRELGVWRSLLRLRATRAG, the protein stability index is 1.42.

In the case of EVAGSLRELGVWRSLLRLRATRAG, the protein stability index stood at 1.82.

Consider EPAGSLRELGVWRVLLRLRATRAG, for which the protein stability index is 1.02.

Take EPAGSLRELGVWRLLLRLRATRAG: the protein stability index was 1.33.

Turning to EPAGSLRELGVWRWLLRLRATRAG, the protein stability index turned out to be 2.5.

Regarding EPAGSLRELGVWRDLLRLRATRAG, the protein stability index came to 1.56.

On to EPAGSLRELGVWRPLLRLRATRAG, for which the protein stability index came to 2.98.

For the variant EPAGSLRELGVWRQLLRLRATRAG, the protein stability index was 2.12.

In the case of EPAGSLRELGVWRMLLRLRATRAG, the protein stability index came to 2.41.

Regarding EPAGSLRELGVWRGLLRLRATRAG, the protein stability index was 1.42.

As for EPAGSLRELGVWRFLLRLRATRAG, the protein stability index came to 2.14.

As for EPAGSLRELGVWRSNLRLRATRAG, the protein stability index is 3.47.

EPAGSLRELGVWRSQLRLRATRAG: the protein stability index came out at 3.84.

Turning to EPAGSLRELGVWRSLLALRATRAG, the protein stability index is 2.91.

Regarding EPAGSLRELGVWRSLLMLRATRAG, the protein stability index stood at 1.2.

Turning to EPAGSLRELGVWRSLLHLRATRAG, the protein stability index stood at 2.65.

In the case of EPAGSLRELGVWRSLLLLRATRAG, the protein stability index was determined as 1.53.

For the variant EPAGSLRELGVWRSLLWLRATRAG, the protein stability index was found to be 1.6.

For EPAGSLRELGVWRSLLILRATRAG, the protein stability index was found to be 2.46.

Regarding EPVGSLRELGVWRSLLRLRATRAG, the protein stability index turned out to be 2.77.

As to EPFGSLRELGVWRSLLRLRATRAG, the protein stability index was 1.47.

Consider EPMGSLRELGVWRSLLRLRATRAG, for which the protein stability index was 2.19.

On to EPLGSLRELGVWRSLLRLRATRAG, for which the protein stability index turned out to be 1.59.

In the case of EPEGSLRELGVWRSLLRLRATRAG, the protein stability index was determined as 2.65.

For EPPGSLRELGVWRSLLRLRATRAG, the protein stability index is 1.63.

In the case of EPTGSLRELGVWRSLLRLRATRAG, the protein stability index stood at 2.93.

Turning to EPAGSMRELGVWRSLLRLRATRAG, the protein stability index amounted to 2.45.

As for EPAGSWRELGVWRSLLRLRATRAG, the protein stability index amounted to 2.39.

As for EPAGSTRELGVWRSLLRLRATRAG, the protein stability index stood at 2.83.

As for EPAGSARELGVWRSLLRLRATRAG, the protein stability index was 3.35.

Take EPAGSLRELGVWRSLLRLRATRMG: the protein stability index is 1.62.

Consider EPAGSLRELGVWRSLLRLRATRYG, for which the protein stability index amounted to 2.75.

Regarding EPAGSLRELGVWRSLLRLRATRTG, the protein stability index came to 2.29.

As for EPAGSLRELGVWRSLLRLRATRCG, the protein stability index came to 1.7.

Turning to EPAGSLRELGVWRSLLRLRATRLG, the protein stability index amounted to 2.2.

EPAGSLRELGVWRSLLRLRATEAG: the protein stability index came to 2.25.

Turning to EPAGSLRELGVWRSLLRLRATHAG, the protein stability index turned out to be 2.01.

In the case of EPAGSLRELGVWRSLLRLRATYAG, the protein stability index stood at 1.34.

Take EPAGSLRELGVWRSLLRLMATRAG: the protein stability index was 2.2.

Regarding EPAGSLRELGVWRSLLRLIATRAG, the protein stability index was 2.24.

On to EPAGSLRELGVWRSLLRLVATRAG, for which the protein stability index was 2.31.

Consider EPAGSLRELGVWRSLLRLSATRAG, for which the protein stability index was 3.27.

For EPAGSLRELGVWRSLLRLKATRAG, the protein stability index came to 2.99.

For the variant EPAGSLRELGVWRSLLRLTATRAG, the protein stability index was 2.91.

Regarding EPAGSLRELGVWRSLLRLLATRAG, the protein stability index turned out to be 2.95.

As for EPAGSLKELGVWRSLLRLRATRAG, the protein stability index worked out at 2.07.

For the variant EPAGSLGELGVWRSLLRLRATRAG, the protein stability index worked out at 3.07.

Take EPAGSLEELGVWRSLLRLRATRAG: the protein stability index came to 2.29.

EPAGSLWELGVWRSLLRLRATRAG: the protein stability index was determined as 1.75.

For the variant EPAGSLRELGVWRSLLRLRAFRAG, the protein stability index turned out to be 1.96.

Regarding EPAGSLRELGVWRSLLRLRAYRAG, the protein stability index came out at 2.42.

As to EPAGSLRELGVWRSLLRLRAVRAG, the protein stability index came out at 1.7.

For EPAGSLRELGVWRSLLRLRACRAG, the protein stability index amounted to 2.07.

Regarding EPAGSLRELGVWRSLLRLRAWRAG, the protein stability index came to 1.31.

Regarding EPAGSLRELLVWRSLLRLRATRAG, the protein stability index worked out at 2.02.

For the variant EPAGSLRELHVWRSLLRLRATRAG, the protein stability index stood at 3.78.

On to EPAGSLRELIVWRSLLRLRATRAG, for which the protein stability index came to 1.86.
